Results as given in PMC2734569, “Functional mapping of the fission yeast DNA polymerase δ B-subunit Cdc1 by site-directed and random pentapeptide insertion mutagenesis” (BMC Molecular Biology, 2009).

Legend:
Experiment in all cases: two-hybrid; LexA-Cdc1 bait (pBTM116 or pBTM116BN) with Gal4-Pol3 prey and co-expressed c-myc-tagged Cdc27 (pAA-Cdc27) in S. cerevisiae CTY10-5d; ONPG liquid culture beta-galactosidase assay, mean of triplicates, as percent of wild-type Cdc1
Conditions in all cases: partners not purified
Cdc1-J9 = target: T1, Cdc1-J9 (Schizosaccharomyces pombe, UniProt P87324 1-462, Met-ArgGlyThrProMet-Thr)
T1 construct: Cdc1, S. pombe, with a pentapeptide inserted after residue 174; source: yeast two-hybrid fusion, in S. cerevisiae CTY10-5d
T1 sequence (looked up): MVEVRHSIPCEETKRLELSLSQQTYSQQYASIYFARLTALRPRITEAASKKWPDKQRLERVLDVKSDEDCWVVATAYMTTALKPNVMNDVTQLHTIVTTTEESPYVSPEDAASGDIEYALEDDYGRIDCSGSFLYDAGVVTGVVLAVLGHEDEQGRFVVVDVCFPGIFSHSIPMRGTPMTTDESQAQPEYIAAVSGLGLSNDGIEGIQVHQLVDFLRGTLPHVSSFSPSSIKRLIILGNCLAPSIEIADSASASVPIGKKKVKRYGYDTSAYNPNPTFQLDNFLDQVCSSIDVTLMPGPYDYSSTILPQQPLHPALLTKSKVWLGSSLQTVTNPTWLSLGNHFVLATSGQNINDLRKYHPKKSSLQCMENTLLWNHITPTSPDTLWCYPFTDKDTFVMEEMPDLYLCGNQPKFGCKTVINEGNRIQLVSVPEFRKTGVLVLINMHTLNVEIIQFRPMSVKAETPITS

Cdc1-J3 = target: T2, Cdc1-J3 (Schizosaccharomyces pombe, UniProt P87324 1-462, Leu-GlyValProLeuLeu-Asp)
T2 construct: Cdc1, S. pombe, with a pentapeptide inserted after residue 62; also called E3; E8; source: yeast two-hybrid fusion, in S. cerevisiae CTY10-5d
T2 sequence (looked up): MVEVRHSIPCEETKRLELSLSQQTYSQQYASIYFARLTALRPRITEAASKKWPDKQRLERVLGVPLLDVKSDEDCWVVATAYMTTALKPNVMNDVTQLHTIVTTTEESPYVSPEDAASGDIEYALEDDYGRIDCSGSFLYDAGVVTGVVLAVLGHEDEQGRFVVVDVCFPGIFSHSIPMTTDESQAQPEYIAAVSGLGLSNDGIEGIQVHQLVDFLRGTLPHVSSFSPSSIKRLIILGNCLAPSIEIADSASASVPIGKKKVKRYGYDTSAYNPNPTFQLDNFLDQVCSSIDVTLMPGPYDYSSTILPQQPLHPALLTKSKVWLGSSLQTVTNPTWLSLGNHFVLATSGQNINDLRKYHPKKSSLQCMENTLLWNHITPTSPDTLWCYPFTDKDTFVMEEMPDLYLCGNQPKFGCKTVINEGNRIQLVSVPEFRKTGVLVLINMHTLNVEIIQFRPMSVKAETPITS

Cdc1-J10 = target: T3, Cdc1-J10 (Schizosaccharomyces pombe, UniProt P87324 1-462, Tyr-ArgGlyThrProTyr-Met)
T3 construct: Cdc1, S. pombe, with a pentapeptide inserted after residue 77; also called J11; E6; source: yeast two-hybrid fusion, in S. cerevisiae CTY10-5d
T3 sequence (looked up): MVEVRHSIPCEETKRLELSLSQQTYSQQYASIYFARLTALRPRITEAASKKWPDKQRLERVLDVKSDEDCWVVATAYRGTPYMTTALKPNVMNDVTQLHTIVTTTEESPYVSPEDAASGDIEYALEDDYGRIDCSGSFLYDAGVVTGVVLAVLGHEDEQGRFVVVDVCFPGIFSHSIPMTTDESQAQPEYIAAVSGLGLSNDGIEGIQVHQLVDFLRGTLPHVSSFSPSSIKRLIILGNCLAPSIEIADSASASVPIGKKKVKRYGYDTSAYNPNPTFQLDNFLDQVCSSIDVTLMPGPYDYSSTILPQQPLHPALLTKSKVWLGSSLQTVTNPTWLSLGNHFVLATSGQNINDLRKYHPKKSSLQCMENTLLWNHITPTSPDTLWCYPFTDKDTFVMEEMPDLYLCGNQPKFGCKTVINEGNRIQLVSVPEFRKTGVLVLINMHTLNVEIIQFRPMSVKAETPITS

Cdc1-A3 = target: T4, Cdc1-A3 (Schizosaccharomyces pombe, UniProt P87324 1-462, Asp296Ala)
T4 construct: Cdc1, S. pombe, point mutant; source: yeast two-hybrid fusion, in S. cerevisiae CTY10-5d
T4 sequence (looked up): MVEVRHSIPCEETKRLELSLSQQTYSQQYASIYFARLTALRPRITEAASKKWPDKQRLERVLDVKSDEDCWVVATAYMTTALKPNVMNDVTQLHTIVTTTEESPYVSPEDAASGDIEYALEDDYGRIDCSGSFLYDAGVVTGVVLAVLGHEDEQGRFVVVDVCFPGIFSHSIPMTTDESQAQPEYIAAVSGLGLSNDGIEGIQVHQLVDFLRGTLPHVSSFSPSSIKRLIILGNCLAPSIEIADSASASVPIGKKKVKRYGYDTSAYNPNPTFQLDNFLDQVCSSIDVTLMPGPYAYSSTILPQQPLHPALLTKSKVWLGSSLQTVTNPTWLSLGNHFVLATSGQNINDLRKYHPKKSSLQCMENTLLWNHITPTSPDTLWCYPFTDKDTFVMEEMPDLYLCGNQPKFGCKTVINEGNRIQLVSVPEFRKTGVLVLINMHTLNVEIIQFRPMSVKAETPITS

B1: Pol3 (fission yeast DNA polymerase delta catalytic subunit) (natural protein, Schizosaccharomyces pombe, UniProt P30316 1-1086, looked up)
chain: MTDRSSNEGVVLNKENYPFPRRNGSIHGEITDVKRRRLSERNGYGDKKGSSSKEKTSSFEDELAEYASQLDQDEIKSSKDQQWQRPALPAINPEKDDIYFQQIDSEEFTEGSVPSIRLFGVTDNGNSILVHVVGFLPYFYVKAPVGFRPEMLERFTQDLDATCNGGVIDHCIIEMKENLYGFQGNEKSPFIKIFTTNPRILSRARNVFERGEFNFEELFPVGVGVTTFESNTQYLLRFMIDCDVVGMNWIHLPASKYQFRYQNRVSNCQIEAWINYKDLISLPAEGQWSKMAPLRIMSFDIECAGRKGVFPDPSIDPVIQIASIVTQYGDSTPFVRNVFCVDTCSQIVGTQVYEFQNQAEMLSSWSKFVRDVDPDVLIGYNICNFDIPYLLDRAKSLRIHNFPLLGRIHNFFSVAKETTFSSKAYGTRESKTTSIPGRLQLDMLQVMQRDFKLRSYSLNAVCSQFLGEQKEDVHYSIITDLQNGTADSRRRLAIYCLKDAYLPQRLMDKLMCFVNYTEMARVTGVPFNFLLARGQQIKVISQLFRKALQHDLVVPNIRVNGTDEQYEGATVIEPIKGYYDTPIATLDFSSLYPSIMQAHNLCYTTLLDSNTAELLKLKQDVDYSVTPNGDYFVKPHVRKGLLPIILADLLNARKKAKADLKKETDPFKKAVLDGRQLALKVSANSVYGFTGATNGRLPCLAISSSVTSYGRQMIEKTKDVVEKRYRIENGYSHDAVVIYGDTDSVMVKFGVKTLPEAMKLGEEAANYVSDQFPNPIKLEFEKVYFPYLLISKKRYAGLFWTRTDTYDKMDSKGIETVRRDNCPLVSYVIDTALRKMLIDQDVEGAQLFTKKVISDLLQNKIDMSQLVITKALSKTDYAAKMAHVELAERMRKRDAGSAPAIGDRVAYVIIKGAQGDQFYMRSEDPIYVLENNIPIDAKYYLENQLSKPLLRIFEPILGEKASSLLHGDHTRTISMAAPSVGGIMKFAVKVETCLGCKAPIKKGKTALCENCLNRSAELYQRQVAQVNDLEVRFARLWTQCQRCQGSMHQDVICTSRDCPIFYMRIAEHKKLQQSVDLLKRFDEMSW
notes: DNA polymerase delta catalytic subunit Pol3, S. pombe; prey plasmid named pACT-Pol3 in the results and pGAD2F-Pol3 in the methods; also called Gal4-Pol3; pACT-Pol3; source: yeast two-hybrid fusion, in S. cerevisiae CTY10-5d
B1 was tested, and the “two-hybrid beta-galactosidase activity, % of wild-type Cdc1” value (Cdc1-J9) was 91%, the “two-hybrid beta-galactosidase activity, % of wild-type Cdc1” value (Cdc1-J3) was 54% and the “two-hybrid beta-galactosidase activity, % of wild-type Cdc1” value (Cdc1-J10) was under 1%. The “two-hybrid beta-galactosidase activity, % of wild-type Cdc1” value (Cdc1-A3) was under 1%.
